# Experimental data taken from article PMC10492923 (MedComm, 2023).
# Target: T1, extracellular protease domain of wild-type ACE2 (human, UniProt Q9BYF1 19-615)
# T1 construct: also called WT ACE2ecd; ACE2ecd
# Test: SPR
# Details: both partners purified
# T1 sequence (Q9BYF1 19-615): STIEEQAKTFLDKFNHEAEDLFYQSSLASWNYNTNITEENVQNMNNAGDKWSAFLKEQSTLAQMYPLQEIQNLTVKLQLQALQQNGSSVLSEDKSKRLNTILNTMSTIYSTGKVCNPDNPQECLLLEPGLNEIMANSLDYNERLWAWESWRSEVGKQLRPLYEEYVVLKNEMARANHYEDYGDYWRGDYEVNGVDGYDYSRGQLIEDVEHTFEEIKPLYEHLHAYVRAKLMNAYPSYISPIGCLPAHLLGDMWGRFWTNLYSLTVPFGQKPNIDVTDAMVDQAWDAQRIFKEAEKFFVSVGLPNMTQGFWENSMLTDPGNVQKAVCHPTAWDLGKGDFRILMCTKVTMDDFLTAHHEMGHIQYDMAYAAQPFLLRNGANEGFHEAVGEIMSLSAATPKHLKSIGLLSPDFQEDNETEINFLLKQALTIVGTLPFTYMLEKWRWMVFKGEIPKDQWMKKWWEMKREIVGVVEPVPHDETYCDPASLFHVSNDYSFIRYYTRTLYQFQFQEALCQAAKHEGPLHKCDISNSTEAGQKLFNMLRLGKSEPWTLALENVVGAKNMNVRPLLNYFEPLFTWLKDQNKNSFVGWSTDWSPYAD
binder,measurement,value
RBD of HCoV-NL63 (domain or fragment) QHTDINFTATASFGGSCYVCKPHQVNISLNGNTSVCVRTSHFSIRYIYNRVKSGSPGDSSWHIYLKSGTCPFSFSKLNNFQKFKTICFSTVEVPGSCNFPLEATWHYTSYTIVGALYVTWSEGNSITGVPYPVSGI,binding result,binds
